Molecular target: human transferrin receptor (hTfR), extracellular domain (Homo sapiens, UniProt P02786 89-760)
Experiment: SPR; ka 6.30E+06; kd 1.38E-04 s-1; SPR Biacore T100, SA chip, biotinylated aptamer heated to 65°C then cooled to 37°C before immobilization; five hTfR concentrations at 10 uL/min; 1:1 model with
Conditions: protein: commercial; tags: N-terminal tag (His implied by Ni-NTA; tag name cut in the text); chain copies: 2; label: biotin

Sequence of human transferrin receptor (hTfR), extracellular domain (P02786 89-760): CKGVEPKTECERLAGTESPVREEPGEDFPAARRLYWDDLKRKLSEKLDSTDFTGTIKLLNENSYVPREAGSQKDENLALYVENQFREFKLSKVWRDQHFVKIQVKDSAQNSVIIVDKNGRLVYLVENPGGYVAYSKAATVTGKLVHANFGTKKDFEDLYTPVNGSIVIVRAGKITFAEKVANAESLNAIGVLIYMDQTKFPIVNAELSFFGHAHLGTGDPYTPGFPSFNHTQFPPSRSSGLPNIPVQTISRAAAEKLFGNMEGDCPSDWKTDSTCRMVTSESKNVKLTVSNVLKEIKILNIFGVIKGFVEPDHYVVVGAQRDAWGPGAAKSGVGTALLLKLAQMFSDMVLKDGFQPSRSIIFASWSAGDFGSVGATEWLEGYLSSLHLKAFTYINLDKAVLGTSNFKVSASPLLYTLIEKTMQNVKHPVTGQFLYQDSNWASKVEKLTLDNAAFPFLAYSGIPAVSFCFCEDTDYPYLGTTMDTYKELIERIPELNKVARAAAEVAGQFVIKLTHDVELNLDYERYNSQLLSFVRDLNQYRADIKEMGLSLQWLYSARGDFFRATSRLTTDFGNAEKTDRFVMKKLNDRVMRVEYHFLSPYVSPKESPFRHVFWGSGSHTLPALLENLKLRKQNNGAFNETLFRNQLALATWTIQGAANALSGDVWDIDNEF

Binder: UUUAUUCACAUUUUUGAAUUGA (XNA, all U and C 2'F-2'-deoxy (i2FU, i2FC); A and G ribo) [tTfR aptamer 22-nt (truncated)]
- Kd: 0.022 nM

Source: paper PMC12144868, “New Transferrin Receptor‐Targeting Conjugate Effectively Delivers DNA to Mouse Brain”
